B1: Myosin-2 (Saccharomyces cerevisiae), P19524 (parent)
chain: MSFEVGTRCWYPHKELGWIGAEVIKNEFNDGKYHLELQLEDDEIVSVDTKDLNNDKDQSLPLLRNPPILEATEDLTSLSYLNEPAVLHAIKQRYSQLNIYTYSGIVLIATNPFDRVDQLYTQDMIQAYAGKRRGELEPHLFAIAEEAYRLMKNDKQNQTIVVSGESGAGKTVSAKYIMRYFASVEEENSATVQHQVEMSETEQKILATNPIMEAFGNAKTTRNDNSSRFGKYLEILFDKDTSIIGARIRTYLLERSRLVYQPPIERNYHIFYQLMAGLPAQTKEELHLTDASDYFYMNQGGDTKINGIDDAKEYKITVDALTLVGITKETQHQIFKILAALLHIGNIEIKKTRNDASLSADEPNLKLACELLGIDAYNFAKWVTKKQIITRSEKIVSNLNYSQALVAKDSVAKFIYSALFDWLVENINTVLCNPAVNDQISSFIGVLDIYGFEHFEKNSFEQFCINYANEKLQQEFNQHVFKLEQEEYVKEEIEWSFIEFNDNQPCIDLIENKLGILSLLDEESRLPAGSDESWTQKLYQTLDKSPTNKVFSKPRFGQTKFIVSHYALDVAYDVEGFIEKNRDTVSDGHLEVLKASTNETLINILEGLEKAAKKLEEAKKLELEQAGSKKPGPIRTVNRKPTLGSMFKQSLIELMNTINSTNVHYIRCIKPNADKEAWQFDNLMVLSQLRACGVLETIRISCAGFPSRWTFEEFVLRYYILIPHEQWDLIFKKKETTEEDIISVVKMILDATVKDKSKYQIGNTKIFFKAGMLAYLEKLRSNKMHNSIVMIQKKIRAKYYRKQYLQISQAIKYLQNNIKGFIIRQRVNDEMKVNCATLLQAAYRGHSIRANVFSVLRTITNLQKKIRKELKQRQLKQEHEYNAAVTIQSKVRTFEPRSRFLRTKKDTVVVQSLIRRRAAQRKLKQLKADAKSVNHLKEVSYKLENKVIELTQNLASKVKENKEMTERIKELQVQVEESAKLQETLENMKKEHLIDIDNQKSKDMELQKTIENNLQSTEQTLKDAQLELEDMVKQHDELKEESKKQLEELEQTKKTLVEYQTLNGDLQNEVKSLKEEIARLQTAMSLGTVTTSVLPQTPLKDVMGGGASNFNNMMLENSDLSPNDLNLKSRSTPSSGNNHIDSLSVDRENGVNATQINEELYRLLEDTEILNQEITEGLLKGFEVPDAGVAIQLSKRDVVYPARILIIVLSEMWRFGLTKQSESFLAQVLTTIQKVVTQLKGNDLIPSGVFWLANVRELYSFVVFALNSILTEETFKNGMTDEEYKEYVSLVTELKDDFEALSYNIYNIWLKKLQKQLQKKAINAVVISESLPGFSAGETSGFLNKIFANTEEYTMDDILTFFNSIYWCMKSFHIENEVFHAVVTTLLNYVDAICFNELIMKRNFLSWKRGLQLNYNVTRLEEWCKTHGLTDGTECLQHLIQTAKLLQVRKYTIEDIDILRGICYSLTPAQLQKLISQYQVADYESPIPQEILRYVADIVKKEAALSSSGNDSKGHEHSSSIFITPETGPFTDPFSLIKTRKFDQVEAYIPAWLSLPSTKRIVDLVAQQVVQDGH
partner: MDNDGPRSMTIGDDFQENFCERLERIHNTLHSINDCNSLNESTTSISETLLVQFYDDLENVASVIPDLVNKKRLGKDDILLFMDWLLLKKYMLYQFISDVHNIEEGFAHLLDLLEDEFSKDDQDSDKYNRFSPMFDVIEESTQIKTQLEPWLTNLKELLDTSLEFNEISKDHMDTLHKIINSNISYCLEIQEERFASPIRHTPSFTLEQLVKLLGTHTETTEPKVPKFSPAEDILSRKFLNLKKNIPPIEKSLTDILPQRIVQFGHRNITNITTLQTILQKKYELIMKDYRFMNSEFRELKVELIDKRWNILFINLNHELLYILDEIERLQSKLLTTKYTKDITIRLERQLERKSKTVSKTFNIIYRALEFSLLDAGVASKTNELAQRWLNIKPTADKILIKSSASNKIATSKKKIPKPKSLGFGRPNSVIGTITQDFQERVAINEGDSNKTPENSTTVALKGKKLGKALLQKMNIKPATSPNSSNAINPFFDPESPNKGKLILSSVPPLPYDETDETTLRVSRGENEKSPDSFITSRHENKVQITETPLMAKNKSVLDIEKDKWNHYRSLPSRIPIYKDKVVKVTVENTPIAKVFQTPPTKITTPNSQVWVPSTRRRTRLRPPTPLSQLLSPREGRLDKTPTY

Variants of: B1
Settings: with kar9_yeast KAR9, P32526

effect of a mutation on the interaction | Variant
disrupting interaction strength | E1168K;N1254D
disrupting interaction strength | Y1161F;N1171Y;L1413S;I1453V;I1498M
